Test results: PMC4914113, “Another look at the mechanism involving trimeric dUTPases in Staphylococcus aureus pathogenicity island induction involves novel players in the party” (Nucleic Acids Research, 2016)

Target: Dut80α D81A D110C S168C (Staphylococcus aureus phage 80α)
Test: BLI; as a1 but non-reducing buffer (400 mM NaCl, 75 mM HEPES pH 7.5, 5 mM MgCl2); no nucleotide; 1:1 model

Stl repressor from SaPIbov1 (natural protein)
Kd: 6 nM | koff: 0.00085 s⁻¹ | kon: 140000 M⁻¹ s⁻¹
